T1: Recombinant vinculin protein (UniProt P18206-2 1-1066)
T1 construct: vinculin, recombinant; The BLI methods describe EZH2 and p38α but say nothing of the vinculin protein
T1 sequence (looked up): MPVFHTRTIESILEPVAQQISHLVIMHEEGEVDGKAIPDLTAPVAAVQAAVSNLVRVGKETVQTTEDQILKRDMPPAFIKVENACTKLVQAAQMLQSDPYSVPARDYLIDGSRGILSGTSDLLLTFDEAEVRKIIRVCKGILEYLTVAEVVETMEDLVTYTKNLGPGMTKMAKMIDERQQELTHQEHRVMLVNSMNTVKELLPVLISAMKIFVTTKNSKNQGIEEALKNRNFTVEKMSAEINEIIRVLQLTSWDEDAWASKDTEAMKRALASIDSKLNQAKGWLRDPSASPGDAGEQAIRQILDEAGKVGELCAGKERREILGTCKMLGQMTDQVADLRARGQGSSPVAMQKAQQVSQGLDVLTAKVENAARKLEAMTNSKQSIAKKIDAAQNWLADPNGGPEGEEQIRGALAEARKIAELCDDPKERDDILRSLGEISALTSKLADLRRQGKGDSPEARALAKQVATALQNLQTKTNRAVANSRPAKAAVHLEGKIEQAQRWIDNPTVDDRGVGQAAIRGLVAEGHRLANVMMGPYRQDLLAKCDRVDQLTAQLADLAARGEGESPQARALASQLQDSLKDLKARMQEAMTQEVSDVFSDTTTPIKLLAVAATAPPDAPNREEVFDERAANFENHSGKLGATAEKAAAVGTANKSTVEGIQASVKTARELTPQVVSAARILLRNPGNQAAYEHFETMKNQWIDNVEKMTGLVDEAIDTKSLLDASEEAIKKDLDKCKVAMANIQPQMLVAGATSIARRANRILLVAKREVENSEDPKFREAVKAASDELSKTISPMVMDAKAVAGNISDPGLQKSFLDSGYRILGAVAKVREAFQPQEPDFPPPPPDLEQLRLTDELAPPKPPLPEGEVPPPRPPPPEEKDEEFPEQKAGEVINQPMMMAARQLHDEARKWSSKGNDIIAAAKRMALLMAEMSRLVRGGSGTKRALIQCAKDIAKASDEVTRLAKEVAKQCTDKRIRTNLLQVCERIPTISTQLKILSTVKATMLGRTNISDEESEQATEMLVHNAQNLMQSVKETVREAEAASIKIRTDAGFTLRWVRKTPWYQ

B1: vinculin (endogenous) (natural protein, human (endogenous in MDA-MB-231), UniProt P18206-2 1-1066, looked up)
chain: T1 sequence (looked up)
notes: vinculin, endogenous; source: endogenous, MDA-MB-231 (whole cell lysate; fixed cells for PLA)
B2: Recombinant EZH2 (GST-EZH2 aa 2-end) (natural protein)
chain: not shown
modifications: biotin (Sulpho-NHS-LC-biotin, protein and biotin mixed 1:1 molar ratio)
notes: EZH2 (Enhancer of zeste homolog 2), aa 2-end; GST-EZH2 MW = 114 kDa; The vendor is printed only as 'Bioscience'; also called Enhancer of zeste homolog 2; immobilized EZH2; source: bought: Bioscience (recombinant)

Experiments:
[1] = target: T2, pEZH2(T367) (endogenous EZH2 phosphorylated at T367) (human (endogenous in MDA-MB-231), UniProt Q15910 1-746, phosphothreonine at 367); experiment: co-IP; endogenous proteins from whole cell extracts of MDA-MB-231 cells; magnetic Dynabeads with antibody (EZH2, pEZH2 or vinculin); with or without doxycycline to induce MKK6EE and p38 activation; conditions: partners not purified
T2 construct: EZH2, endogenous, phosphorylated at T367 by p38; also called phosphorylated EZH2 (T367); source: endogenous, MDA-MB-231 (whole cell extracts; fixed cells for PLA)

[2] = target: T1, Recombinant vinculin protein; experiment: BLI; same experiment as a1 (EZH2 immobilised, 30 °C, HBS-P); steady state analysis of response against concentration; conditions: both partners purified
[3] = target: T1, Recombinant vinculin protein; experiment: BLI; biotinylated GST-EZH2 immobilised on Super Streptavidin (SSA) biosensors; analyte in a concentration series; OctetRED96; 30 °C; HBS-P (10 mM HEPES pH 7.4, 150 mM NaCl, 0.005% tween-20); double referencing; kinetic fit, 1:1 binding model; conditions: both partners purified

T2 sequence (Q15910 whole entry): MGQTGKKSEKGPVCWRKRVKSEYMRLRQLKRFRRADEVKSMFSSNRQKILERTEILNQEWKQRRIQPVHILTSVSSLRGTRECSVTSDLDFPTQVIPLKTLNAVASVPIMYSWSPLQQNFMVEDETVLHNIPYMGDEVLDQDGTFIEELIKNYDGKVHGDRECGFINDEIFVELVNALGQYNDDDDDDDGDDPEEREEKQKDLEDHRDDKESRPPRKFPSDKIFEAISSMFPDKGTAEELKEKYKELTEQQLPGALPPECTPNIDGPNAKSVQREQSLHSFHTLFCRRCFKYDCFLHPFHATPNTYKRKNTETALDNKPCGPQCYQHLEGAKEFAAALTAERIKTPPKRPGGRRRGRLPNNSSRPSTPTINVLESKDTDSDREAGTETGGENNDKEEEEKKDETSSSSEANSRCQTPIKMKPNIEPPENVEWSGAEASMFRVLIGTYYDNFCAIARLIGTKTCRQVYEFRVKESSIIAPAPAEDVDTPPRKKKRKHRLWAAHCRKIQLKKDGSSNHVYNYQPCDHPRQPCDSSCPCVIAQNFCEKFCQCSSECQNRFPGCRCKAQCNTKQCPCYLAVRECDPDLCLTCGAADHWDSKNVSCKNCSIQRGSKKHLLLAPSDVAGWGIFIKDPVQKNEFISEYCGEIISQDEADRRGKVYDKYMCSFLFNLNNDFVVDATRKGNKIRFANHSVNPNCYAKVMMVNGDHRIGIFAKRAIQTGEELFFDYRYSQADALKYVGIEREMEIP

Binder | fold increase of binding on p38 activation against uninduced controls [1] [fold] | Kd [2] [nM] | Kd [3] [nM] | koff [3] [s⁻¹] | kon [3] [M⁻¹ s⁻¹]
B1 | ~10 |  |  |  | 
B2 |  | 42 | 15 | 0.00385 | 294000

Source: paper PMC6051995, “p38-mediated phosphorylation at T367 induces EZH2 cytoplasmic localization to promote breast cancer metastasis” (Nature Communications, 2018)
